Assays:
AtTCP7 = AtTCP7 (Arabidopsis thaliana, UniProt Q9FMX2 1-250); assay: EMSA; LightShift Chemiluminescent EMSA Kit (Pierce), manufacturer's instructions; buffer, salt, pH and temperature not stated; conditions: protein: recombinant; tags: N-terminal GST (pDEST15); chain copies: 2; label: biotin (both strands); blunt
AtTCP22;AtTCP23 = AtTCP22;AtTCP23 (Arabidopsis thaliana;Arabidopsis …, UniProt Q9C7G4;Q9LQF0 1-375;1-341, |); assay: EMSA; heterodimer; LightShift Chemiluminescent EMSA Kit (Pierce), manufacturer's instructions; buffer, salt, pH and temperature not stated; conditions: protein: recombinant;recombinant; tags: N-terminal GST (pDEST15);N-terminal GST (pDEST15); copies: 1;1; label: biotin (both strands); blunt
AtTCP7;AtTCP23 = AtTCP7;AtTCP23 (Arabidopsis thaliana;Arabidopsis …, UniProt Q9FMX2;Q9LQF0 1-250;1-341, |); assay: as above; conditions: protein: recombinant;recombinant; tags: N-terminal GST (pDEST15);N-terminal GST (pDEST15); copies: 1;1; label: biotin (both strands); blunt
AtTCP7;AtTCP22 = AtTCP7;AtTCP22 (Arabidopsis thaliana;Arabidopsis …, UniProt Q9FMX2;Q9C7G4 1-250;1-375, |); assay: as above; conditions: protein: recombinant;recombinant; tags: N-terminal GST (pDEST15);N-terminal GST (pDEST15); copies: 1;1; label: biotin (both strands); blunt

Measured: binding result

AtTCP7;AtTCP23, sequence (Q9FMX2 whole entry, chain 1 of 2): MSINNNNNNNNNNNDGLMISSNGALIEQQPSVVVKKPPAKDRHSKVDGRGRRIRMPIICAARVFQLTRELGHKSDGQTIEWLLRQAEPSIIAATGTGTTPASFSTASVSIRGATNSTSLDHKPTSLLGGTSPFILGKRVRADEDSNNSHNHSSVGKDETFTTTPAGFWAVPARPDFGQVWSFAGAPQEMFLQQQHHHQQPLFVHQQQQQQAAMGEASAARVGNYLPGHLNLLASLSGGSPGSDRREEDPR
AtTCP7;AtTCP23, sequence (Q9LQF0 whole entry, chain 2 of 2): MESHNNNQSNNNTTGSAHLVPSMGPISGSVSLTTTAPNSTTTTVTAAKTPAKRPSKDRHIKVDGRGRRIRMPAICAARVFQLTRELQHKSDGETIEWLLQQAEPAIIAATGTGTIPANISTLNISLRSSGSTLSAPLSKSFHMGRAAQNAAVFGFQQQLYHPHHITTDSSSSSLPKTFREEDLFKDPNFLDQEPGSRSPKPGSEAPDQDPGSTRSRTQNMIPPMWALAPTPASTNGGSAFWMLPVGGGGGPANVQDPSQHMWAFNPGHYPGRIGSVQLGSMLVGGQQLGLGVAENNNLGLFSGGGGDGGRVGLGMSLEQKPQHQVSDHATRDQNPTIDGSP
AtTCP7;AtTCP22, sequence (Q9FMX2 whole entry, chain 1 of 2): as the sequence (Q9FMX2 whole entry, chain 1 of 2) above
AtTCP7;AtTCP22, sequence (Q9C7G4 whole entry, chain 2 of 2): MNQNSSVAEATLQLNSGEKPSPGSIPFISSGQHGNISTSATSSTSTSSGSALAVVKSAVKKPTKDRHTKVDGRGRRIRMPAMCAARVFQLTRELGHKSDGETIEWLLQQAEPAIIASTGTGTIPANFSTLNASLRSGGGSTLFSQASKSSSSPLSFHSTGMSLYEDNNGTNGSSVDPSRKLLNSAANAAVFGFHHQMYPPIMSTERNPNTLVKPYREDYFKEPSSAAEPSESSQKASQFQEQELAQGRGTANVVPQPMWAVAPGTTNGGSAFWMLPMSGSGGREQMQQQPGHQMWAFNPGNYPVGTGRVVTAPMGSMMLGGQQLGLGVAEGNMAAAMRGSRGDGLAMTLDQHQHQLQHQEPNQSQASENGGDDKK
AtTCP7, sequence (Q9FMX2 whole entry): as the sequence (Q9FMX2 whole entry, chain 1 of 2) above
AtTCP22;AtTCP23, sequence (Q9C7G4 whole entry, chain 1 of 2): as the sequence (Q9C7G4 whole entry, chain 2 of 2) above
AtTCP22;AtTCP23, sequence (Q9LQF0 whole entry, chain 2 of 2): as the sequence (Q9LQF0 whole entry, chain 2 of 2) above

B1: STM promoter K-box probe, 76 bp (dsDNA)
DNA 1: AACTATCACTATTTAGAATTTTCAATGTGGAAAAGGAAGCTGATTGTTGAAGCATAAATCCCGGGAGACCACTTTT
DNA 2: AAAAGTGGTCTCCCGGGATTTATGCTTCAACAATCAGCTTCCTTTTCCACATTGAAAATTCTAAATAGTGATAGTT
binds: all assays above

— article PMC3797442, “Analysis of the role of Arabidopsis class I TCP genes AtTCP7, AtTCP8, AtTCP22, and AtTCP23 in leaf development”
